In patent publication US20240132578A1:

Key:
Assay in all cases: cell-based or functional assay
[1] = molecular target: HIV-1 Env of isolate 93IN905 (clade C) (HIV-1)
[2] = molecular target: HIV-1 Env of isolate 92TH021 (clade AE) (HIV-1)
[3] = molecular target: HIV-1 Env of isolate APV6 (clade B) (HIV-1)
[4] = molecular target: HIV-1 Env of isolate MGRM-C-026 (clade C) (HIV-1)
[5] = molecular target: HIV-1 JR-CSF Env N339A (HIV-1 isolate JR-CSF) (UniProt P20871)
[6] = molecular target: HIV-1 envelope glycoprotein (Env) of isolate 92UG005 (HIV-1)
[7] = molecular target: HIV-1 envelope glycoprotein (Env) of isolate 92UG024 (HIV-1)
[8] = molecular target: HIV-1 envelope glycoprotein (Env) of isolate 92BR020 (HIV-1)
[9] = molecular target: HIV-1 envelope glycoprotein (Env) of isolate MGRM-C-028 (HIV-1)
[10] = molecular target: HIV-1 envelope glycoprotein (Env) of isolate NL43 (HIV-1)
[11] = molecular target: HIV-1 92BR020 envelope glycoprotein (Env), clade B pseudovirus (HIV-1)
[12] = molecular target: HIV-1 94UG103 Env (HIV-1 isolate 94UG103 (clade A))
[13] = molecular target: HIV-1 JRCSF Env (HIV-1 isolate JRCSF (clade B)) (UniProt P20871)
[14] = molecular target: HIV-1 MGRM-D-001 Env (HIV-1 isolate MGRM-D-001 (clade D))
[15] = molecular target: HIV-1 MGRM-A-010 envelope glycoprotein (Env) on virus (HIV-1, clade A, isolate MGRM-A-010)
[16] = molecular target: HIV-1 JRCSF envelope glycoprotein (Env) on virus (HIV-1, clade B, isolate JRCSF) (UniProt P20871)
[17] = molecular target: HIV-1 93UG077 envelope glycoprotein (Env) on virus (HIV-1, clade A, isolate 93UG077)
[18] = molecular target: HIV-1 MGRM-AG-005 envelope glycoprotein (Env) on virus (HIV-1, clade AG, isolate MGRM-AG-005)
[19] = molecular target: HIV-1 APV6 envelope glycoprotein (Env) on virus (HIV-1, clade B, isolate APV6)
[20] = molecular target: HIV-1 MGRM-C-028 envelope glycoprotein (Env) (HIV-1)
[21] = molecular target: HIV-1 MGRM-D-018 envelope glycoprotein (Env) (HIV-1)
[22] = molecular target: HIV-1 94UG103 envelope glycoprotein (Env) (HIV-1)
aMLV envelope protein = molecular target: aMLV envelope protein
[23] = molecular target: HIV-1 MGRM-AG-005 envelope glycoprotein (Env) (HIV-1)
[24] = molecular target: HIV-1 93IN905 envelope glycoprotein (Env) (HIV-1)
[25] = molecular target: HIV-1 Env of pseudovirus THRO.18 (HIV-1)
[26] = molecular target: HIV-1 Env of pseudovirus REJ04541 (HIV-1)
[27] = molecular target: HIV-1 Env of pseudovirus DU156 (HIV-1)
[28] = molecular target: HIV-1 Env of isolate APV_13 (subtype B), on pseudovirus (HIV-1)
[29] = molecular target: HIV-1 Env of isolate MG RM-D-029 (subtype D) (HIV-1)
[30] = molecular target: HIV-1 Env of isolate MG RM-C-020 (HIV-1)

Sequence of 5329_C19 (PGT-136) (antibody) (VH): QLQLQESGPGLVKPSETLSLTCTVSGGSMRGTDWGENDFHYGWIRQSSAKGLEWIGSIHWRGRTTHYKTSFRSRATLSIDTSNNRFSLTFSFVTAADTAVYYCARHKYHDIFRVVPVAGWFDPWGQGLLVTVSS
Sequence of 5329_C19 (PGT-136) (antibody) (VL): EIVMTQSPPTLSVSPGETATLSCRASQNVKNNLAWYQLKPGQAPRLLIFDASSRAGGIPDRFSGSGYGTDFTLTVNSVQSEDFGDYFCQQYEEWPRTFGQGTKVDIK
Sequence of 1443_C16 (PG16) (TCN-116) (antibody) (VH): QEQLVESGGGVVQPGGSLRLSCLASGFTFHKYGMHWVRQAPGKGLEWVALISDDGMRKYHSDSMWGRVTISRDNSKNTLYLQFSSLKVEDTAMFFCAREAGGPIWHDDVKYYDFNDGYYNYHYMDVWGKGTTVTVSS
Sequence of 1443_C16 (PG16) (TCN-116) (antibody) (VL): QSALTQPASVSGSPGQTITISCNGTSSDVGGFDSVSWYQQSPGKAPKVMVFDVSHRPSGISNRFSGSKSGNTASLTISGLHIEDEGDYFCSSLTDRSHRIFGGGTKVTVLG

With 1496_C09 (PG9) (TCN-109) (antibody) the Neutralization IC80 [1] was 0.308 µg/mL, the Neutralization IC90 [1] was 0.981 µg/mL and the Neutralization IC95 [1] was 3.31 µg/mL. The neutralization IC50 [1] was 0.048 µg/mL, the Neutralization IC80 [2] was 0.448 µg/mL and the Neutralization IC90 [2] was 1.07 µg/mL. For the same substance, the Neutralization IC95 [2] was 2.43 µg/mL, the neutralization IC50 [2] was 0.103 µg/mL and the Neutralization IC80 [3] was 1.13 µg/mL. For the same substance, the Neutralization IC90 [3] was 3.21 µg/mL, the Neutralization IC95 [3] was 9.65 µg/mL and the neutralization IC50 [3] was 0.214 µg/mL. It also gave a neutralization IC50 [4] of 0.113 µg/mL.

Work on 5147_N06 (PGT-130) (antibody) yielded a Fold IC50 increase relative to wild-type [5] of 0.2 fold.

5141_B17 (PGT-126) (antibody) gave a Neutralization IC80 [6] of 0.145 µg/mL, a Neutralization IC90 [6] of 0.553 µg/mL and a Neutralization IC95 [6] of 2.45 µg/mL. The neutralization IC50 [6] was 0.0181 µg/mL, the Neutralization IC80 [7] was greater than 10 µg/mL and the Neutralization IC90 [7] was greater than 10 µg/mL. It also gave a Neutralization IC95 [7] greater than 10 µg/mL, a neutralization IC50 [7] greater than 10 µg/mL and a Neutralization IC80 [8] of 0.0457 µg/mL. The Neutralization IC90 [8] was 0.0846 µg/mL, the Neutralization IC95 [8] was 0.152 µg/mL and the neutralization IC50 [8] was 0.0163 µg/mL. The Neutralization IC80 [9] was 2.62 µg/mL, the Neutralization IC90 [9] was greater than 10 µg/mL and the Neutralization IC95 [9] was greater than 10 µg/mL. For the same substance, the neutralization IC50 [9] was 0.283 µg/mL, the Neutralization IC80 [10] was greater than 10 µg/mL and the Neutralization IC90 [10] was greater than 10 µg/mL. It also gave a Neutralization IC95 [10] greater than 10 µg/mL and a neutralization IC50 [10] greater than 10 µg/mL.

4858_P08 (PGT-123) (antibody) gave an IC50, pseudovirus neutralization [11] of 0.013 µg/mL, an IC80 (pseudovirus neutralization) [11] of 0.039 µg/mL and an IC90 (pseudovirus neutralization) [11] of 0.0741 µg/mL. For the same substance, the IC95 (pseudovirus neutralization) [11] was 0.134 µg/mL.

For 4838_L06 (PGT-121) (antibody), the Neutralization IC80 [12] was 8.85 µg/mL, the Neutralization IC90 [13] was 0.223 µg/mL and the Neutralization IC95 [13] was 0.417 µg/mL. It also gave a Neutralization IC80 [14] of 3.29 µg/mL, a Neutralization IC90 [14] of 6.26 µg/mL and a Neutralization IC95 [14] of 9.39 µg/mL.

For 4877_D15 (PGT-122) (antibody), the Neutralization IC80 [15] was greater than 10 µg/mL, the Neutralization IC90 [15] was greater than 10 µg/mL and the Neutralization IC95 [15] was greater than 10 µg/mL. For the same substance, the neutralization IC50 [15] was 1.68 µg/mL, the Neutralization IC80 [16] was 0.245 µg/mL and the Neutralization IC90 [16] was 0.494 µg/mL. The Neutralization IC95 [16] was 0.926 µg/mL, the neutralization IC50 [16] was 0.0727 µg/mL and the Neutralization IC80 [17] was 0.931 µg/mL. For the same substance, the Neutralization IC90 [17] was 2.1 µg/mL, the Neutralization IC95 [17] was 3.88 µg/mL and the neutralization IC50 [17] was 0.191 µg/mL. The Neutralization IC80 [18] was greater than 10 µg/mL, the Neutralization IC90 [18] was greater than 10 µg/mL and the Neutralization IC95 [18] was greater than 10 µg/mL. The neutralization IC50 [18] was greater than 10 µg/mL, the Neutralization IC80 [19] was 0.351 µg/mL and the Neutralization IC90 [19] was 0.779 µg/mL. The Neutralization IC95 [19] was 1.55 µg/mL and the neutralization IC50 [19] was 0.0851 µg/mL.

Work on 5329_C19 (PGT-136) (antibody) yielded a Neutralization IC80 [20] greater than 10 µg/mL, a Neutralization IC90 [20] greater than 10 µg/mL and a Neutralization IC95 [20] greater than 10 µg/mL. For the same substance, the neutralization IC50 [20] was greater than 10 µg/mL, the Neutralization IC80 [21] was greater than 10 µg/mL and the Neutralization IC90 [21] was greater than 10 µg/mL. The Neutralization IC95 [21] was greater than 10 µg/mL, the neutralization IC50 [21] was greater than 10 µg/mL and the Neutralization IC80 [22] was greater than 10 µg/mL. For the same substance, the Neutralization IC90 [22] was greater than 10 µg/mL, the Neutralization IC95 [22] was greater than 10 µg/mL and the neutralization IC50 [22] was greater than 10 µg/mL. It also gave a Neutralization IC80 (aMLV envelope protein) greater than 10 µg/mL, a Neutralization IC90 (aMLV envelope protein) greater than 10 µg/mL and a Neutralization IC95 (aMLV envelope protein) greater than 10 µg/mL. It also gave a neutralization IC50 (aMLV envelope protein) greater than 10 µg/mL, a Neutralization IC80 [23] greater than 10 µg/mL and a Neutralization IC90 [23] greater than 10 µg/mL. It also gave a Neutralization IC95 [23] greater than 10 µg/mL, a neutralization IC50 [23] greater than 10 µg/mL and a Neutralization IC80 [24] of 0.0623 µg/mL. It also gave a Neutralization IC90 [24] of 0.156 µg/mL, a Neutralization IC95 [24] of 0.379 µg/mL and a neutralization IC50 [24] of 0.0135 µg/mL.

Substance 1443_C16 (PG16) (TCN-116) (antibody) has an IC50, pseudovirus neutralization (TZM-bl assay) [25] of 2.19 µg/mL, an IC50, pseudovirus neutralization (TZM-bl assay) [26] of less than 0.01 µg/mL and an IC50, pseudovirus neutralization (TZM-bl assay) [27] of less than 0.01 µg/mL.

Substance PGV04 (antibody) has an IC50, single-round pseudovirus neutralization [28] of 1.23 µg/mL, an IC50 (µg/mL), pseudovirus neutralization [29] of 1.56 µg/mL and an IC50 (µg/mL), pseudovirus neutralization [30] of 0.112 µg/mL.
